Measured values published in patent US20160287696A1, “PAN POLLEN IMMUNOGENS AND METHODS AND USES FOR IMMUNE RESPONSE MODULATION” (LA JOLLA INSTITUTE FOR ALLERGY AND IMMUNOLOGY, priority 2013, published 2016).

B1: NTGA 19: Phl p wild type sequence, Table 2 (protein)
chain: GVVATTDAVEACTGVNVAVMVGGFPRKEGMERKDVMSKNVSIYKSQASALEAHAAPNCKVLVVANPANTNALILKEFAPSIPEKNISCLTRLDHNRALGQVSERLNVQVSDVKNVLIWGNHSSSQYPDVNHATVKTSSGEKPVRELVQDDEWLNGPFIATVQQRGAAIIKARKLSSALSAASSACDHIRDWVLGTPEGTFVSMGVYSDGSYGVPAGLIYSFPVTCSGGEWTIVQGLPIDEFSRKKMDATAQELSEEKALAYSCL
modifications: Phleum Pratense
B2: NTGA 73: Phl p wild type sequence, Table 2 (protein)
chain: MSSAKQVLEPAFQGAGQKPGTEIWRIENFNPVPLPKSDYGKFYCGDSYIVLQTTCNKGGAYLFDIHFWIGKDSSQDEAGTSAIKTVELDTMLGGRAVQHREPQGYESDKFLSYFKPCIIPLEGGFASGFKTPEEEKFETRLYICKGKRAIRVKEVPFARSSLNHDDVFILDTEKKIYQFNGANSNIQERAKALEVIQHLKDKYHEGVCDVAIVDDGKLQAESDSGEFWVVFGGFAPIGKKTVSDDDVILETSPTKLYSINNGKLKLEDIVLTKSILENTKCFLLDCGSELFVWVGRVTQVDDRKAASAAVEEFIVKQNRPKTTRVTQVIQGYENHTFKSLFESWPVSSTGNASTEEGRGKVAALLKKKGDVKGASKNSTPVNEEVPPLLEGSGKLEVWCVDGSAKTALPKEDLGKFHSGDCYIVLYTYHSGEKREEFYLTYWIGKDSVLEDQHMALQIATTIWNSMKGRPVLGRIYQGKEPPQFIALFQPMVILKGGISSGYKKSIEENGLKDETYSGTGIALVHIHGTSIHNNKTLQVDAVSISLSSTDCFVLQSGNSMFTWIGNTSSYEQQQWAAKVAEFLKPGASVKHCKEGTESSAFWSALGGKQNYTSKNATQDVLREPHLYTFSFRNGKLEVTEVFNFSQDDLLTEDVMILDTHAEVFVWMGQCVDTKEKQTAFETGQKYVEHAVNFEGLSPDVPLYKVSEGNEPCFFRTYFSWDNTRSVIHGNSFQKKLSLLFGMRSESGSKGSGDGGPTQRASALAALSSAFNPSSQDKQSNDRPKSSGDGGPTQRASALAALSSSLNPSSKPKSPHSQSRSGQGSQRAAAVAALSNVLTAEGSTLSPRNDAEKTELAPSEFHTDQDAPGDEVPSEGERTEPDVSQEETANENGGETTFSYDRLISKSTDPVRGIDYKRRETYLSDSEFETVFGVTKEEFYQQPRWKQELQKRKADLF
modifications: Phleum Pratense
B3: NTGA 13: Phl p wild type sequence, Table 2 (protein)
chain: MDEEYDVIVLGTGLKECILSGLLSVDGLKVLHMDRNDYYGGESTSLNLTKIWKRFKGSEATPDHLGVSKEYNVDMVPKFMMANGALVRVLIRTSVTKYLNFKAVDGSFVYNNGKIHKVPATDVEALKSNLMGLFEKRRARKFFIYVQDYEEEDPKSHEGLDLHKVTTREVISKYGLEDDTVDFIGHALALHRDDNYLDEPAIDTVKRMKLYAESLARFQGGSPYIYPLYGLGELPQAFARLSAVYGGTYMLNKPECKVEFDESGKAFGVTSEGETAKCKKVVCDPSYLPDKVTKVGRVARAICIMKHPIPDTKDSHSVQIILPKKQLKRKSDMYVFCCSYAHNVAPKGKFIAFVSTEAETDKPEIELKPGIDLLGPVEETFFDIYDRYEPANAPEEDNCFVTNSYDATTHFETTVKDVLALYSKITGKELDLSVDLNAASAGESE
modifications: Phleum Pratense
B4: NTGA 39/59: Phl p wild type full length sequence from which PG+ peptides of NTGA's 39 and 59 derive (protein)
chain: MAPRKFFVGGNWKCNGASDDVKKIVTVLNEAEVPSEDAVEVVVSPPFVFLQQAKALLRPDFAVAAQNCWVRKGGAFTGEISAEMLVNLQVPWVILGHSERRALLSESNDFVADKVAYALAQGLKVIACIGETLEQREAGTTMEVVAAQTKAIAEKISDWTNVVLAYEPVWAIGTGKVASRAQAQEVHDGLRKWLHANVGPAVAESTRIIYGGSVNGANCKELAAQPDLDGFLVGGASLKPEFVDIIKSATVKSSS
modifications: Phleum Pratense

Tested on: cultured PBMCs of the allergic donors
Test: ELISPOT of IL-5 or IFNg production by cultured PBMCs of TG allergic donors in response to peptide
Assay type: cell-based, human
Conditions: for No of PG+ & th+ peptides per NTGA / No of PP & Th+ peptides per NTGA: Table 6; for No of PG+ & th+ peptides per NTGA: PG+ peptides recognized by T cells of grass allergic donors (n=20); for No of PP & Th+ peptides per NTGA: PP peptides recognized by T cells of grass allergic donors (n=20); for # Th+: Table 7, peptides per NTGA recognized by T cells of grass allergic donors (n=20)
Procedure, shortened: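 PBMCs from Timothy grass-allergic donors (n=20), expanded in vitro with TG extract (50 μg/mL) or peptide pool, then plated at 1×10^5 cells/well with single 15-mer peptide (10 μg/mL). IL-5 or IFNg measured by ELISPOT; peptide response positive at ≥20 SFCs/10^6 PBMCs, P .05, stimulation index ≥2; value is number of responding donors.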

| Molecule | No of PG+ & th+ peptides per NTGA | No of PP & Th+ peptides per NTGA | # Th+ | NTGA's containing at least one T cell epitope, Th+ (Col 2) (NTGA number given = criterion met, TG allergic donors n=20) |
| --- | --- | --- | --- | --- |
| B1 | 0 | 0 | 0 | – |
| B2 | 0 | 0 | 0 | – |
| B3 | 0 | 0 | 0 | – |
| B4 | – | – | – | 39/59 |
